Assay results reported in patent US20250057918A1 (YALE UNIVERSITY, published 2025).
Where two headings read alike, the source gives them in different places.

What was measured:
[1] = molecular target: T1, human IL-18BP (amino acids 31-194) (human, UniProt O95998 31-194, biotinylated on the AviTag (BirA ligase) where immobilized or used for staining); assay: SPR; KD BP / KD Ra normalized to WT IL-18
T1 construct: Secreted decoy receptor; made in insect cells (gp67 signal peptide); also called hIL-18BP
T1 sequence: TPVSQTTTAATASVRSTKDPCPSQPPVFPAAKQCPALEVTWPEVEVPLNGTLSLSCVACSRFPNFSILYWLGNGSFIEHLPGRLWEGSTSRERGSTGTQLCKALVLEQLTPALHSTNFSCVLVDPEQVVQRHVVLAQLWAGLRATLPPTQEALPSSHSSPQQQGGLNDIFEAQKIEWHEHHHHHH

[2] = molecular target: T1, human IL-18BP (amino acids 31-194); assay: on-yeast isotherms; KD IL-18BP / KD IL-18Rα (20 µM used for NBD)
[3] = molecular target: T2, IL-18 receptor (IL-18R) on HEK-Blue IL-18 reporter cells (UniProt Q13478 19-541; O95256 20-599, limits assumed); assay: cell-based or functional assay
T2 sequence (looked up) 1: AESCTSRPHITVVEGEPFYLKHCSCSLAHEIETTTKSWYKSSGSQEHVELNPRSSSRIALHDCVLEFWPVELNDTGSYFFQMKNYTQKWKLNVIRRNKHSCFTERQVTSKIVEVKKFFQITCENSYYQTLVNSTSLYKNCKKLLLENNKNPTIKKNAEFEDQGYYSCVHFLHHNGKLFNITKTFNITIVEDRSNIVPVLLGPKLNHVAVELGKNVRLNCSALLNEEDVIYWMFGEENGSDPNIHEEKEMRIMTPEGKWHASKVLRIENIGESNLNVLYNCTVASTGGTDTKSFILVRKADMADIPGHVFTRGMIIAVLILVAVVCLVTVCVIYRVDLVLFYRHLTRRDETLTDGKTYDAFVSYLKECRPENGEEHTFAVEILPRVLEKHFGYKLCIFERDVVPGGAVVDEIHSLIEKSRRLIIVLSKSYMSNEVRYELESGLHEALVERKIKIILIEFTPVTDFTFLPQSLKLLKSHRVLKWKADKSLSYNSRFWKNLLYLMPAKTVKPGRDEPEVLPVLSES
T2 sequence (looked up) 2: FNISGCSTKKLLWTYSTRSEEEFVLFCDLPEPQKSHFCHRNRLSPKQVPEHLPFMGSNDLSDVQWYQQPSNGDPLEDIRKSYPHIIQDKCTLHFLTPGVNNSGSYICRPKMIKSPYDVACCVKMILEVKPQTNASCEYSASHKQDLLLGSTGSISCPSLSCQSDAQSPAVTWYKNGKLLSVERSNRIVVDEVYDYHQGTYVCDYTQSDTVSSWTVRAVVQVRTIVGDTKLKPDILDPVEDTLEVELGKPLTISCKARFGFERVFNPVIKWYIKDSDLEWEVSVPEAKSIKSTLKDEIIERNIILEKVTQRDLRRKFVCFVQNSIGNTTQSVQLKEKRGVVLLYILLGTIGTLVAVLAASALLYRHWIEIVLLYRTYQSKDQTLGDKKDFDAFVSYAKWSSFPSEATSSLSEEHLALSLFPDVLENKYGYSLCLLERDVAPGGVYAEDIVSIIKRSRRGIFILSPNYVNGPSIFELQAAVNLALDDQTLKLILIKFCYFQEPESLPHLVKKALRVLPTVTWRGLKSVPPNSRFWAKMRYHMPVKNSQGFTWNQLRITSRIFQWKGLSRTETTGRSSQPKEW

[4] = molecular target: T1, human IL-18BP (amino acids 31-194); assay: on-yeast isotherms; KD IL-18BP / KD IL-18Rα; on-yeast isotherms; ratio of two KDs
[5] = molecular target: T1, human IL-18BP (amino acids 31-194); assay: SPR; KD IL-18BP / KD IL-18Rα; SPR; ratio of two KDs
Experimental: (§1) Experiments were conducted using a Biacore™ T100 (Protein analysis interaction system) and carried out at 25° C. Biotinylated IL-18Rα or TL-18BP were immobilized onto a Biacore™ biotin capture chip (Series S CAP sensor chip, GE Healthcare) to yield an Rmax of ˜50 RU (IL-18Rα) or ˜10 RU (IL-18BP). Measurements were made with serial dilutions of the IL-18 variants in HEPES buffered Saline-P+ buffer (10 mM HEPES pH 7.4, 150 mM NaCl, 0.005% surfactant P20). The surface was regenerated by three 60-see injections of regeneration buffer (3/4 (v/v) 8M guanidine hydrochloride with 1/4 (v/v) 1M sodium hydroxide). Experiments were performed in multiple channels simultaneously for increased observations. All data were analyzed with the Biacore™ T100 evaluation software version 2.0 with a 1:1 Langmuir binding model.
(§2) To additionally characterize the receptor binding activities of the DR-IL-18 variants, the cytokines were expressed recombinantly and surface plasmon resonance for IL-18Rα and IL-18BP was performed (see FIG. 5B for representative traces).

[6] = molecular target: T2, IL-18 receptor (IL-18R) on HEK-Blue …; assay: cell-based or functional assay; remark: listed apart in the source
[7] = molecular target: T3, human IL-18Rα ectodomain (amino acids 19-329) (human, UniProt Q13478 19-329, biotinylated on the AviTag (BirA ligase)); assay: on-yeast binding isotherm, flow cytometry
T3 construct: range 19-329; Secreted from insect cells (gp67 signal peptide); also called hIL-18Rα; hIL-18Ra
T3 sequence: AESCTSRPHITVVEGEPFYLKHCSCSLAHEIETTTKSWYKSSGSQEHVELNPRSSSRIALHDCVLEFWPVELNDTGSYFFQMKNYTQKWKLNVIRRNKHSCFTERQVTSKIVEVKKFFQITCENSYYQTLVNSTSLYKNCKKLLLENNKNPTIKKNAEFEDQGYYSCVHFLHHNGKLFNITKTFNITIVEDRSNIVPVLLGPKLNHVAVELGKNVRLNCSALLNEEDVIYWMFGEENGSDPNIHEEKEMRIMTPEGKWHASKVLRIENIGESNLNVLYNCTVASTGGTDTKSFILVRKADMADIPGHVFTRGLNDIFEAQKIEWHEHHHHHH
Experimental: Individual colonies of IL-18 yeast were grown overnight at 30° C. in SDCAA liquid media and induced in SGCAA liquid media for 1 day at 20° C. IL-18 display levels on yeast were verified by flow cytometry using an anti-cMyc tag antibody (anti-myc-PE; Cell Signaling Technologies). Receptor staining with biotinylated IL-18Rα (with or without IL-18Rβ) or biotinylated IL-18BP was performed in PBS supplemented with 0.5% BSA and 2 mM EDTA (PBE) on ice. All analysis was performed on a Sony SA3800 flow cytometer.
as §2

[8] = molecular target: T4, mouse IL-18BP (amino acids 31-194) (mouse, UniProt Q9Z0M9 29-193, biotinylated on the AviTag (BirA ligase)); assay: SPR; KD IL-18BP / KD IL-18Rα; SPR; ratio of two KDs
T4 construct: Secreted decoy receptor; made in Expi293 cells (H7 signal peptide); the stated range is the same as for the human protein; also called mIL-18BP
T4 sequence: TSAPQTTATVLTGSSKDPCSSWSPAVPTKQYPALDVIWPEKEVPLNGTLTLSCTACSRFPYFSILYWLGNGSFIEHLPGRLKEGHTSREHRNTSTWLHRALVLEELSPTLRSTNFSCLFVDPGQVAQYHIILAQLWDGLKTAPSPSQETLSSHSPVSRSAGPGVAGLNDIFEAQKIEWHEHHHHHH
Experimental: By contrast, very little binding is observed with the same variants and mIL-18BP (right). (FIG. 11B) Representative surface plasmon resonance sensorgrams between immobilized biotinylated mIL-18BP and the murine DR-IL-18 variants.
as §1

[9] = molecular target: T4, mouse IL-18BP (amino acids 31-194); assay: SPR; KD BP / KD Ra normalized to WT IL-18
[10] = molecular target: T5, mouse IL-18Rα ectodomain (amino acids 19-329) (mouse, UniProt Q61098 19-329, biotinylated on the AviTag (BirA ligase)); assay: flow cytometry, mIL-18Rα titrated on yeast-displayed murine IL-18 variant (binding isotherm, %Max)
T5 construct: range 19-329; Secreted from Expi293 cells (H7 signal peptide); also called mIL-18Rα; Ra
T5 sequence: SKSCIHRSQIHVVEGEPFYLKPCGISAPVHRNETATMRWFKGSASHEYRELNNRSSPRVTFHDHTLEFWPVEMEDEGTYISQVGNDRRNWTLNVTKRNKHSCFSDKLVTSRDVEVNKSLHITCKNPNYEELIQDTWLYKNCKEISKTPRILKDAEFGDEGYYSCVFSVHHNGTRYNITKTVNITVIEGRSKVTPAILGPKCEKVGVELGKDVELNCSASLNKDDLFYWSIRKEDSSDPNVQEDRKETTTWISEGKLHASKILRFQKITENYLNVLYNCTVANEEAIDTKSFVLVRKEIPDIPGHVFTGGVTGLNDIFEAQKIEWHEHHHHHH

[11] = molecular target: T4, mouse IL-18BP (amino acids 31-194); assay: on-yeast isotherms; KD IL-18BP / KD IL-18Rα (10 µM used for NBD); on-yeast isotherms; 10 µM put in for NBD

B1: 6-12 (ligand)
chain: YFGKLESKLSVIRNLNDQVLFIDQGNRPLFEDMTDSDCRDNAPRTIFIISKYSDSLARGLAVTISVKCEKISTLSCENKIISFKEMNPPDNIKDTKSDIIFFQRDVPGHSRKMQFESSSYEGYFLACEKERDLFKLILKKEDELGDRSIMFTVQNED
notes: recombinant with C-terminal hexahistidine tag in SPR and cell assays; also called h6-12; version 2.0 human DR-IL-18 variant
IL-18 BP:Ra Dissociation Constant Ratio [1]: > 9.32e+06 | KD ratio: IL-18BP/IL-18Rα [2]: 1200 | EC50 (read off the curve); HEK-Blue IL-18 SEAP reporter, OD 655 nM [3]: ~0.6 nM

B2: hCS3 (ligand)
chain: RFGKLESKLSVIRNLNDQVLFIDQGNRPLFEDMTDSDCRDNAPRTIFIISTYKDSQPRGKAVTISVKCEKISTLSCENKIISFKEMNPPDNIKDTKSDIIFFQRDVPGHKHKMQFESSSYEGYFLACEKERDLFKLILKKEDELGDRSIMFTVQNED
notes: recombinant with C-terminal hexahistidine tag in SPR and cell assays
KD ratio: IL-18BP/IL-18Rα [4]: 103 | IL-18 BP:Ra Dissociation Constant Ratio [1]: 4350 | KD ratio: IL-18BP/IL-18Rα [5]: 2.27

B3: hCS1 (ligand)
chain: YFGKLESKLSVIRNLNDQVLFIDQGNRPLFEDMTDSDCRDNAPRTIFIISTYKDSQPRGKAVTISVKCEKISTLSCENKIISFKEMNPPDNIKDTKSDIIFFQRDVPGHKHKMQFESSSYEGYFLACEKERDLFKLILKKEDELGDRSIMFTVQNED
notes: as for B2
KD ratio: IL-18BP/IL-18Rα [4]: 300 | IL-18 BP:Ra Dissociation Constant Ratio [1]: 3020 | KD ratio: IL-18BP/IL-18Rα [5]: 2.41 | EC50 (read off the curve); HEK-Blue IL-18 SEAP reporter, OD 655 nM [6]: ~4 nM

B4: 6-27 (ligand)
chain: YFGKLESKLSVIRNLNDQVLFIDQGNRPLFEDMTDSDCRDNAPRTIFIISKYSDSRARGLAVTISVKCEKISTLSCENKIISFKEMNPPDNIKDTKSDIIFFARSVPGHGRKTQFESSSYEGYFLACEKERDLFKLILKKEDELGDRSIMFTVQNED
notes: recombinant with C-terminal hexahistidine tag in SPR and cell assays; also called h6-27; version 2.0 human DR-IL-18 variant
IL-18 BP:Ra Dissociation Constant Ratio [1]: > 5.86e+06 | KD ratio: IL-18BP/IL-18Rα [2]: 480 | EC50 (read off the curve); HEK-Blue IL-18 SEAP reporter, OD 655 nM [3]: ~1 nM

B5: 6-31 (ligand)
chain: YFGKLESKLSVIRNLNDQVLFIDQGNRPLFEDMTDSDCRDNAPRTIFIISKYGDSGARGLAVTISVKCEKISTLSCENKIISFKEMNPPDNIKDTKSDIIFFERDVPGHSGKVQFESSSYEGYFLACEKERDLFKLILKKEDELGDRSIMFTVQNED
notes: recombinant with C-terminal hexahistidine tag in SPR and cell assays; also called h6-31; version 2.0 human DR-IL-18 variant
IL-18 BP:Ra Dissociation Constant Ratio [1]: > 1.06e+06 | KD ratio: IL-18BP/IL-18Rα [2]: 490 | EC50 (read off the curve); HEK-Blue IL-18 SEAP reporter, OD 655 nM [3]: ~4 nM

B6: hCS2 (ligand)
chain: YFGKLESKLSVIRNLNDQVLFIDQGNRPLFEDMTDSDCRDNAPRTIFIISTYKDKQPRAKAVTISVKCEKISTLSCENKIISFKEMNPPDNIKDTKSDIIFFQRDVPGHKHKMQFESSSYEGYFLACEKERDLFKLILKKEDELGDRSIMFTIQNED
notes: recombinant with C-terminal hexahistidine tag in SPR
Kd [7]: 91.5 nM | KD ratio: IL-18BP/IL-18Rα [2]: > 219

B7: mCS2 (ligand)
chain: HFGRLHCTTAVIRNINDQVLFVDKRQPVFEDMTDIDQSASEPQTRLIIYAYGDSRARGKAVTLSVKDSKMSTLSCKNKIISFEEMDPPENIDDIQSDLIFFQKRVPGHNKMEFESSLYEGHFLACQKEDDAFKLILKKKDENGDKSVMFTLTNLHQS
notes: recombinant with C-terminal hexahistidine tag in SPR; also called DR-IL-18 (mCS2); DR-18 variant mCS2
KD ratio: IL-18BP/IL-18Rα [8]: 133000 | IL-18 BP:Ra Dissociation Constant Ratio [9]: > 7.5e+07 | EC50 (read off the curve) [10]: ~10 nM | KD ratio: IL-18BP/IL-18Rα [11]: > 885
